Experiments:
[1] = biological target: native complement component C3 (human); assay: SPR
[2] = biological target: T1, C3b (proteolytic fragment of complement component C3) (human, UniProt P01024 749-1663; P01024 749-1663); assay: SPR
C3 methylamine = C3 methylamine (human, treated with methylamine); assay: SPR
[3] = biological target: T1, C3b (proteolytic fragment of complement …); assay: BLI
iC3b [4] = biological target: iC3b (human); assay: BLI
[5] = biological target: T1, C3b (proteolytic fragment of complement …); assay: BLI; remark: listed apart in the source
iC3b [6] = biological target: iC3b (human); assay: BLI; remark: listed apart in the source

T1 sequence (P01024 23-667, chain 1 of 2): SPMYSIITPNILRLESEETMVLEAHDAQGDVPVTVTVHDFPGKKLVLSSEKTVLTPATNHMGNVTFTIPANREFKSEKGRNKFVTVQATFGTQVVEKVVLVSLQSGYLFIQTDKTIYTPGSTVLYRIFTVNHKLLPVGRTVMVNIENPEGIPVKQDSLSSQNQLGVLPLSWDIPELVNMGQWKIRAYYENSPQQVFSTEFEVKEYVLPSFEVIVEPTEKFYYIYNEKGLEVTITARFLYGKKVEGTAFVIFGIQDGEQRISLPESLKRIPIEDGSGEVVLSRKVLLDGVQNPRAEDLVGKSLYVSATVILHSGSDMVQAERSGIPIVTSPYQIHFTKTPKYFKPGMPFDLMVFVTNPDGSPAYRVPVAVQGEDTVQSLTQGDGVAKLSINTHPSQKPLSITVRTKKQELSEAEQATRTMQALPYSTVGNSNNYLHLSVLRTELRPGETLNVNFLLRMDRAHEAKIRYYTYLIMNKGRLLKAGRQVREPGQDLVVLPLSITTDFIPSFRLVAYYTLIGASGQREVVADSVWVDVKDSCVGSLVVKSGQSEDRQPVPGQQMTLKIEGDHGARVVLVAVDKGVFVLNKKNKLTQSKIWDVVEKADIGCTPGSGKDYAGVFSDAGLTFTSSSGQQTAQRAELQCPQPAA
T1 sequence (P01024 749-1663, chain 2 of 2): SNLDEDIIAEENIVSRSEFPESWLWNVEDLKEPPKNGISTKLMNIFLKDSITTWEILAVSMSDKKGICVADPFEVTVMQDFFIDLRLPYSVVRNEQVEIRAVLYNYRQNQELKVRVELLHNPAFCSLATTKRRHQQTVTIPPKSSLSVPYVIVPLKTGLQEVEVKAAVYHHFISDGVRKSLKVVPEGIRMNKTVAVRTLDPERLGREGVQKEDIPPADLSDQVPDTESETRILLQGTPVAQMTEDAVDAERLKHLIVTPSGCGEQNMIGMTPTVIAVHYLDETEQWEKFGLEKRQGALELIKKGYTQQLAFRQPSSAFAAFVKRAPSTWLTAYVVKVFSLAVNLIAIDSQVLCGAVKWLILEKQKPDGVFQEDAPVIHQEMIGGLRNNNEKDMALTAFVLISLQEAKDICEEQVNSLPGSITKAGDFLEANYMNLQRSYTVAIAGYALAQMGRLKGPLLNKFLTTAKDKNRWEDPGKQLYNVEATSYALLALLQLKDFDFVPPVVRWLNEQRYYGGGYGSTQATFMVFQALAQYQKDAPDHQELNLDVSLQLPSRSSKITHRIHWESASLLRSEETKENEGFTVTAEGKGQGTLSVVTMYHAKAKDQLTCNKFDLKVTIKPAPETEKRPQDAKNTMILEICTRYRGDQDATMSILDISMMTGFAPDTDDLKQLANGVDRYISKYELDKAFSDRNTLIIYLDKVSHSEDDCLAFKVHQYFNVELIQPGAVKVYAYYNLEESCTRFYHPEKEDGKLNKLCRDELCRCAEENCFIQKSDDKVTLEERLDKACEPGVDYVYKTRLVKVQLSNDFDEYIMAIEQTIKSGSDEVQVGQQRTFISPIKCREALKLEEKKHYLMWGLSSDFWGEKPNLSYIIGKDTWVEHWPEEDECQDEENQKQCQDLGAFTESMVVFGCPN
iC3b (human), sequence (chain, as listed by the source, chain 1 of 3): as the sequence (P01024 23-667, chain 1 of 2) above
iC3b (human), sequence (chain, as listed by the source, chain 2 of 3): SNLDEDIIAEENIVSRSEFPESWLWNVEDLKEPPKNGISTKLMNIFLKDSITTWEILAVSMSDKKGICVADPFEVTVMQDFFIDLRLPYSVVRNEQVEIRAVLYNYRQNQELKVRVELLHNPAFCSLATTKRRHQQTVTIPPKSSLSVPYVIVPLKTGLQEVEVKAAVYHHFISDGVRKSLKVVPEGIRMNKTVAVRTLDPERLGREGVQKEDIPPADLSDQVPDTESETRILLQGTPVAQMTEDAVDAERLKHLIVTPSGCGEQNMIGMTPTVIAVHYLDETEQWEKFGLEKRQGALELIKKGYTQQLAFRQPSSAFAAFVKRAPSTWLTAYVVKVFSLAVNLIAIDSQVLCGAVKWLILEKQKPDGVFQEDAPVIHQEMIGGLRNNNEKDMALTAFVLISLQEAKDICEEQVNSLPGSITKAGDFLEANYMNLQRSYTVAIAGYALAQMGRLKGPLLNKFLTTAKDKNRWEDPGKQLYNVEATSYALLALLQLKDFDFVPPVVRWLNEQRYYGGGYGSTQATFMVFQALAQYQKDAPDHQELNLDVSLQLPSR
iC3b (human), sequence (chain, as listed by the source, chain 3 of 3): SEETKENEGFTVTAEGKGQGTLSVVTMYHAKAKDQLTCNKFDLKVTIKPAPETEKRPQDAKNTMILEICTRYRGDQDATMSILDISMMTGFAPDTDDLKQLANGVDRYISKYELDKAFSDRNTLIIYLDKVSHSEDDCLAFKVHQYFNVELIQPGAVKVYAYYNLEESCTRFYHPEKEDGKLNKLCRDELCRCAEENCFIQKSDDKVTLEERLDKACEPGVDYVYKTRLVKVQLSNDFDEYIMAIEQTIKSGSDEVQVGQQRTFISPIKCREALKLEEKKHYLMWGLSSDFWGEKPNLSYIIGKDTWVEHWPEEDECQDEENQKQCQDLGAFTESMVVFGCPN
C3 methylamine (human, treated with methylamine), sequence (chain, as listed by the source, chain 1 of 2): as the sequence (P01024 23-667, chain 1 of 2) above
C3 methylamine (human, treated with methylamine), sequence (chain, as listed by the source, chain 2 of 2): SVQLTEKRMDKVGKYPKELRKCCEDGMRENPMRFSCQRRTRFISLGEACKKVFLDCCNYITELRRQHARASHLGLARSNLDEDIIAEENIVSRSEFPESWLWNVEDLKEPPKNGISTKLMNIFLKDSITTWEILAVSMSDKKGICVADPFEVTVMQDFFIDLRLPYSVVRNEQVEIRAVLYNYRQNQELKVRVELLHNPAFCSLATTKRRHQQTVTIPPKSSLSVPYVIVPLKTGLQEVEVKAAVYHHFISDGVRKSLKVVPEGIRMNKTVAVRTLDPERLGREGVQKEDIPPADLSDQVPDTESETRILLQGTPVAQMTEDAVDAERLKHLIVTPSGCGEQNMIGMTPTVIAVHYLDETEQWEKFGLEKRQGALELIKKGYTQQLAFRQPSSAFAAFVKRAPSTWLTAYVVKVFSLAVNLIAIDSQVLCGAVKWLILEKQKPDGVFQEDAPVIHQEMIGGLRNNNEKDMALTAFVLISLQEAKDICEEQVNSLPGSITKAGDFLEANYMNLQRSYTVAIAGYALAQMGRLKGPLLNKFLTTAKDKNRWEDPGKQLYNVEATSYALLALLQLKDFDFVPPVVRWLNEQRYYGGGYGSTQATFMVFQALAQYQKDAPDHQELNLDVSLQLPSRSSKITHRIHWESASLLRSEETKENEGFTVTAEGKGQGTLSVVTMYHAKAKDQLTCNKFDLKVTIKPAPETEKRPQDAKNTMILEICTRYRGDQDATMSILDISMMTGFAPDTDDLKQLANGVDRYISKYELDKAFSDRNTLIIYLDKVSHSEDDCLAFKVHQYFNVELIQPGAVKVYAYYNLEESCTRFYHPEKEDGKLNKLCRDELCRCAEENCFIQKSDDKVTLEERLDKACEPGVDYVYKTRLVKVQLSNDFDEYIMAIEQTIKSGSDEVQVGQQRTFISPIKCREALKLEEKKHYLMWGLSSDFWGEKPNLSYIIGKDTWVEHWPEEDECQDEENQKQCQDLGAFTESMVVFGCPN
native complement component C3 (human), sequence (chain, as listed by the source, chain 1 of 2): as the sequence (P01024 23-667, chain 1 of 2) above
native complement component C3 (human), sequence (chain, as listed by the source, chain 2 of 2): as the sequence (chain, as listed by the source, chain 2 of 2) above

B1: avi-tagged, biotinylated EWE nanobody (VHH)
VHH: QVQLVETGGGLVQAGGSLRLSCAASGSIFSINAMGWFRQAPGKEREFVATINRSGGRTYYADSVKGRFTISRDNGKNMVYLQMHSLKPEDTAIYYCAAGTGWSPQTDNEYNYWGQGTQVTVSS
modifications: biotin
For B1, the koff [1] was 0.000105 s⁻¹, the koff [2] was 8.6e-05 s⁻¹ and the koff (C3 methylamine) was 7.6e-05 s⁻¹.

B2: EWE-hC3Nb1 nanobody, bacterially expressed (VHH)
VHH: B1 VHH
B2 showed a koff [3] of 0.00037 s⁻¹ and a koff (iC3b [4]) of 0.00026 s⁻¹.

B3: EWEnH fusion protein (EWE fused to FH CCP2-4) (other)
chain: EWEQVQLVETGGGLVQAGGSLRLSCAASGSIFSINAMGWFRQAPGKEREFVATINRSGGRTYYADSVKGRFTISRDNGKNMVYLQMHSLKPEDTAIYYCAAGTGWSPQTDNEYNYWGQGTQVTVSSRPCGHPGDTPFGTFTLTGGNVFEYGVKAVYTCNEGYQLLGEINYRECDTDGWTNDIPICEVVKCLPVTAPENGKIVSSAMEPDREYHFGQAVRFVCNSGYKIEGDEEMHCSDDGFWSKEKPKCVEISCKSPDVINGSPISQKIIYKENERFQYKCNMGYEYSERGDAVCTESGWRPLPSCEE
B3 gave a Kd [5] of 7.1 nM and a Kd (iC3b [6]) of 8.9 nM.

Reference: paper PMC9352930 (2022)
